We go through three molecules from patent US20030186915A1, “Regulatory polynucleotides and uses thereof” (priority 2002, published 2003).

The subject of data set [1] is SOST regulatory region. In words: Transactivation of SOST reporter constructs by co-transfected expression plasmids in SAOS cells. Type of data set: cell-based, human. To be noted: factor overexpressed, 48 hrs after transfection. Here is the method:
To determine whether transfected Cbfa1 could drive further increases in the transcriptional activity of the SOST promoter, the Cbfa1 gene was recovered from an SAOS cDNA library and inserted it into a mammalian expression vector.
To test the effects of the two proteins Cbaf1 and MyoD on transactivitation of the 1.8 kb SOST regulatory region, the following tests were performed. SAOS cells were transfected with 500 ng of either the EcoRV fragment (nucleotides 1673 to 1814 of SEQ ID NO: 1) or 1.8 kb SOST regulatory region (nucleotides 1 to 1841 of SEQ ID NO:1) and the indicated combinations of expression plasmids for MyoD (150 ng) or Cbfa1 (30 ng, 300 ng). pBluescript (Stratagene) was used as needed to bring the DNA total to 1 μg per well, and SEAP (20 ng) was used to normalize for transfection efficiency. Cells were harvested 48 hrs after transfection. Both the SOST-luc and the EcoRV fragment were activated by Cbaf1 and MyoD.

Data set [2] deals with SAOS cells. In words: Luciferase reporter assay of SOST regulatory region constructs, transient transfection. Type of data set: cell-based, human. The conditions noted are these: deletion constructs in pGL2-Basic. On the technique in general: Reporter assays use an easily measured gene product as a stand-in for the process of interest.

B1: Cbfa1: transcription factor; gene recovered from an SAOS cDNA library, overexpressed from a mammalian expression vector (protein)
chain: MASNSLFSTVTPCQQNFFWDPSTSRRFSPPSSSLQPGKMSDVSPVVAAQQQQQQQQQQQQQQQQQQQQQQQEAAAAAAAAAAAAAAAAAVPRLRPPHDNRTMVEIIADHPAELVRTDSPNFLCSVLPSHWRCNKTLPVAFKVVALGEVPDGTVVTVMAGNDENYSAELRNASAVMKNQVARFNDLRFVGRSGRGKSFTLTITVFTNPPQVATYHRAIKVTVDGPREPRRHRQKLDDSKPSLFSDRLSDLGRIPHPSMRVGVPPQNPRPSLNSAPSPFNPQGQSQITDPRQAQSSPPWSYDQSYPSYLSQMTSPSIHSTTPLSSTRGTGLPAITDVPRRISDDDTATSDFCLWPSTLSKKSQAGASELGPFSDPRQFPSISSLTESRFSNPRMHYPATFTYTPPVTSGMSLGMSATTHYHTYLPPPYPGSSQSQSGPFQTSSTPYLYYGTSSGSYQFPMVPGGDRSPSRMLPPCTTTSNGSTLLNPNLPNQNDGVDADGSHSSSPTVLNSSGRMDESVWRPY
For B1, the “activity of the 1.8 kb SOST regulatory region reporter (SOST-luc)” value in data set [1] was “increased activity”; in data set [1] (listed as Cbaf1), “activated”. For the same molecule, the “activity of the EcoRV fragment reporter” value in data set [1] is given as “increased activity”; in data set [1] (listed as Cbaf1) it was “activated”.

B2: MyoD: transcription factor overexpressed from an expression plasmid (150 ng) (protein, UniProt P15172 1-320, looked up)
Myoblast determination …: MELLSPPLRDVDLTAPDGSLCSFATTDDFYDDPCFDSPDLRFFEDLDPRLMHVGALLKPEEHSHFPAAVHPAPGAREDEHVRAPSGHHQAGRCLLWACKACKRKTTNADRRKAATMRERRRLSKVNEAFETLKRCTSSNPNQRLPKVEILRNAIRYIEGLQALLRDQDAAPPGAAAAFYAPGPLPPGRGGEHYSGDSDASSPRSNCSDGMMDYSGPPSGARRRNCYEGAYYNEAPSEPRPGKSAAVSSLDCLSSIVERISTESPAAPALLLADVPSESPPRRQEAAAPSEGESSGDPTQSPDAAPQCPAGANPNPIYQVL
With B2, in data set [1], the “activity of the 1.8 kb SOST regulatory region reporter (SOST-luc)” value is recorded as “activated” and the “activity of the EcoRV fragment reporter” value is “activated”.

B3: EcoRV to BglII fragment: about 142 nucleotides, nucleotides 1673 to 1814 of SEQ ID NO: 1, in luciferase reporter construct (nucleic acid, listed as Homo sapiens)
DNA: ATCTGAAAACCACAGCCGCCAGCACGTGGGAGGTGCCGGAGAGCAGGCTTGGGCCTTGCCTCACACGCCCCCTCTCTCTGGGTCACCTGGGAGTGCCAGCAGCAATTTGGAAGTTTGCTGAGCTAGAGGAGAAGTCTTTGGG
modifications: in luciferase reporter construct
As for B3, the “increase in luciferase activity over the 1.8 kb SOST regulatory region” value in data set [2] is “almost three fold”.
